# Target: Human calmodulin (human, UniProt P0DP23 1-149)
# Assay: ITC
binder,measurement,value
Human NaV1.9 C-tail (residues 1618 to 1766) (domain or fragment) LGEDDFDIFYEVWEKFDPEATQFIKYSALSDFADALPEPLRVAKPNKYQFLVMDLPMVSEDRLHCMDILFAFTARVLGGSDGLDSMKAMMEEKFMEANPLKKLYEPIVTTTKRKEEERGAAIIQKAFRKYMMKVTKGDQGDQNDLENGP,Kd,~214 µM
